The assay concerns the target MBP2-ISEF-N1G1N2-(…)-NVDE1-184-…-FKBP2-GSRS-6His (bacteriophage M13; yeast; human) (UniProt P69168). In words: cell-based or functional assay.

MBP2-ISEF-N1G1N2-(…)-NVDE1-184-…-FKBP2-GSRS-6His (bacteriophage M13; yeast; human), sequence (P69168 19-265, tags or fused parts left off): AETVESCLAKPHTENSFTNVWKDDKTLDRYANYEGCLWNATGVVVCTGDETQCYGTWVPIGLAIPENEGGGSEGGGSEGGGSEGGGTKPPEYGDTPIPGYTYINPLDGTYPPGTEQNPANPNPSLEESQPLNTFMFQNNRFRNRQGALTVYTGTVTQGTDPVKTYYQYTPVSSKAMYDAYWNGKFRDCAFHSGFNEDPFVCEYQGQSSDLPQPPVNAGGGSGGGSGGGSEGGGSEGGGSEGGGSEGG

With “phage displaying the fusion protein FRB-TS-CVDE390-454-GSGGGS-CTg3p (from UniProt P42345 2021-2113; P17255 390-454)”, the phages recovering infecting ability counted as colony forming units, with against without rapamycin (10 µM) was found to be 100 times.

(Values after US20100273669A1.)
